Assay results reported in the nanobody polyreactivity screen of Harvey et al. (2022).

Assay: yeast display, Sf9 membrane polyspecificity reagent, FACS + sequencing; frameworks hold sequencing errors
Method in brief: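 Polyreactivity labels are assigned by the sorting gate from which each nanobody was recovered. The gates were low and high (top ~1%), set on anti-HA fluorescence for expression and streptavidin fluorescence for reagent binding. Before sorting, galactose-induced (36–48 hours) yeast display cells were stained for 1 hour at 4 °C with 10% biotinylated, detergent-solubilized Sf9 membrane reagent.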

Sequence: QVQLVESGGGLVQAGGSLRLSCAASGNTFTRNTMGWYRQAPGKERELVASISLSGASTYYADSVKGRFTISRDNAKNTVYLQMNSLKPEDTAVYYCAKRRSYGYYRAYNYWGQGTQVTVSS
- polyreactivity (PSR sort gate): high polyreactivity

Sequence: QVQLVESGGGLVQAGGSLRLSCAASGNTFTTNAMGWYRQAPGKERELVAAIRWRADSTYYADSVKGRFTISRDNAKNTVYLQMNSLKPEDTAVYYCASRYSLRYYYWGQGTQVTVSS
- polyreactivity (PSR sort gate): low polyreactivity

Sequence: QVQLVESGGGLVQAGGSLRLSCAASGNTFVPYAMGWYIQAPRKEREFVAAISSTSGSTYYADSVKGRITISRDNAKNTVYLQMNSLKPEDTAVYYCATKRPYSSKRYKYWKVDYWGQGTQVTVSS
- polyreactivity (PSR sort gate): high polyreactivity

Sequence: QVQLVESGGGLVQAGGSLRLSCAASGNTFVRYAMGWYRQAPGKERELVAAITRSGSSTYYADSVKGRFTISRDNAKNTVYLQMNSLKPEDTAVYYCAAYSWYYAGYDYWGQGTQVTVSS
- polyreactivity (PSR sort gate): high polyreactivity

Sequence: QVQLVESGGGLVQAGGSLRLSCAASGNTFVYNDMGWSRQAPGKERELVADIRYSGSTYYADSVMGRFTISRDNAKNTVYLQMNSLKPEDTAVYYCAKAYYVLSWMGYWGQGTPVTVSS
- polyreactivity (PSR sort gate): low polyreactivity

Sequence: QVQLVESGGGLVQAGGSLRLSCAASGNTFWLNAMGWYRQAPGKERELVASISYSGASTYYADSVKGRFTISRDNAKNTVYFQMNSLKPEDTAVYYCNTDGDDFFHVIYDYWGQGTQVTVSS
- polyreactivity (PSR sort gate): low polyreactivity

Sequence: QVQLVESGGGLVQAGGSLRLSCAASGNTFYANVMGWYRQAPGKERELVASITWSGGSTYYADSVKGRFTISRDNAKNTVYLQMNSLKPEDTAVYYCATSGDRLVWGQGTQVTVSS
- polyreactivity (PSR sort gate): low polyreactivity

Sequence: QVQLVESGGGLVQAGGSLRLSCAASGNTFYAYAMGWYRQAPGKERELVASITLSGDSTYYADSVKGRFTISRDNAKNSVYLQMSSLIPEDTAVYYCAGVYTYPLGYYHYTYDYWGQGTQVTVSS
- polyreactivity (PSR sort gate): low polyreactivity

Sequence: QVQLVESGGGLVQAGGSLRLSCAASGNTFYGYAMGWYRQAPGKERELVAAIRGSDGITFYADSVKGRFTISRDNAKNTVYLQMNSLKPEDTAVYYCAKDTYRSPRHDYGYWGQGTQVTVSS
- polyreactivity (PSR sort gate): low polyreactivity

Sequence: QVQLVESGGGLVQAGGSLRLSCAASGNTFYINAMGWYRQAPGKERELVAAINYSGDSTYADSVKGRFTISRDNAKNTVYLQMNSLKPEDSAVYYCAADWYFSVYIDYDTEYDYWGQGTQVTVSS
- polyreactivity (PSR sort gate): low polyreactivity

Sequence: QVQLVESGGGLVQAGGSLRLSCAASGNTFYINAMGWYRQAPGKERELVAAINYSGESTYADSVKGRFTISRDNAKNTVYFQMNSLKPEDTAVYYCAADWYFSVYIDYDTEYDYWGQGTQVTVSS
- polyreactivity (PSR sort gate): low polyreactivity

Sequence: QVQLVESGGGLVQAGGSLRLSCAASGNTFYPYAMGWYRQAPGKERELVATIRGSDDSTYYADSVKGRFTISRDNAKNTVYLQMNSLKPEDTAVYDCAADDVVSTFLRGYVRYDYWGQGTQVTVSS
- polyreactivity (PSR sort gate): high polyreactivity

Sequence: QVQLVESGGGLVQAGGSLRLSCAASGNTFYRYAMGWNRQAPGKERELVAAISNGGSTNYADSVKGRFTISRDNAKNTVYLQMNSLKPEDSAVYYWAAANTRRYTHGFWGHGTQVTVSS
- polyreactivity (PSR sort gate): high polyreactivity

Sequence: QVQLVESGGGLVQAGGSLRLSCAASGNTFYVNVMGWYRPAPGKEREFVAAISTRGVSTSYADSVKGRFTISRDNAKNTVYFQMNSLKPEDTAVYYGAARYYYRDWVGIISTYYYWGQGTQVTVSS
- polyreactivity (PSR sort gate): high polyreactivity

Sequence: QVQLVESGGGLVQAGGSLRLSCAASGNTFYWNAMGWYRQAAGKERELVAAISTTGVSTYYADSVKGRFTISRDNAKNTVYLQMNSLKPEDTAVYYCATVSYYDRYDYDYWGQGTQVTVSS
- polyreactivity (PSR sort gate): low polyreactivity

Sequence: QVQLVESGGGLVQAGGSLRLSCAASGNTINKYAMGWYRQAPGKERELVAAITRSGGSTYYADSVKGRFTISRDKAKNTVYLQMNSLKPEDTAVYYCAAAYWILYYPIDQAFDYWGQGTQVTVSS
- polyreactivity (PSR sort gate): low polyreactivity

Sequence: QVQLVESGGGLVQAGGSLRLSCAASGNTLLSYAMGWYRQAPGKEWELVAAISIDGSTIYADSVKGRFTISRDNAKNTVYLQMNSLKPEDTAVYYCNADRTPFAEMDYWGQGTQVTVSS
- polyreactivity (PSR sort gate): low polyreactivity

Sequence: QVQLVESGGGLVQAGGSLRLSCAASGNTLNYYTMGWYRQAPGKERELVAAISSSGGSTYYADSVKGRFTISRDNAKNTVYLQMNSLKPEDTAVYYCAVLFYNNFGYWGQGTQVTVSS
- polyreactivity (PSR sort gate): low polyreactivity

Sequence: QVQLVESGGGLVQAGGSLRLSCAASGNTYSYNAMGWYRQAPGKEREFVASISRRGGRTNYADSVKGRFTISRDNAKYTVYLQMNSLKPEDTAVYYCAATTVPLGDYWGQGTQVTVST
- polyreactivity (PSR sort gate): high polyreactivity

Sequence: QVQLVESGGGLVQAGGSLRLSCAASGNTYTSYAMGWYRQAPGKDRELVAAISASGSSTYYADSVKGRFTISRDNAKNTVYLQMNSLKPEDTAVFYCARQWYWRPGYYMGQGYEYWGQGTQVTVSS
- polyreactivity (PSR sort gate): low polyreactivity

Sequence: QVQLVESGGGLVQAGGSLRLSCAASGPIFATNAMGWYRQAPGKERELVASISSGGGSTYYADSVKGRFTISRDNAKNTVYLQMNSLKPEDTAVYYCAADYYTGYVWEDYYWGQGTQVTVSS
- polyreactivity (PSR sort gate): low polyreactivity
